Data published in publication PMC6692119 (Nature, 2017).

Experiments:
Assay in all cases: cryo-EM structure
[1] = target: T1, Med17 (S. pombe Mediator subunit) (S. pombe, UniProt P87306 1-545)
T1 sequence (looked up): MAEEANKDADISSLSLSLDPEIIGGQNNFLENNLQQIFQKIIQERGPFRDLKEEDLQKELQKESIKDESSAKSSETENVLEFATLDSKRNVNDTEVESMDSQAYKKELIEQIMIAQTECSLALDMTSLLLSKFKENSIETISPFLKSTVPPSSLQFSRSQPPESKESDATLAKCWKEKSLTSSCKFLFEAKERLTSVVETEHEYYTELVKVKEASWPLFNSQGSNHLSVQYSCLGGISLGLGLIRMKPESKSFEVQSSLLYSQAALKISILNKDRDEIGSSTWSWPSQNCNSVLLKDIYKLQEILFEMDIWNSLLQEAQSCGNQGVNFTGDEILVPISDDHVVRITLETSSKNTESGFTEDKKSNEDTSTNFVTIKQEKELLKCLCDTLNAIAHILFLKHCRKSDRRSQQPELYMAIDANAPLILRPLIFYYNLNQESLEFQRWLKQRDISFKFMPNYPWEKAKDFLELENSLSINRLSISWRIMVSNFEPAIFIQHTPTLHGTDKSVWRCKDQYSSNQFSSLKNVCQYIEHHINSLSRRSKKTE

[2] = target: T2, Med14 (S. pombe Mediator subunit) (S. pombe, UniProt Q9P7Y4 1-879)
T2 sequence (looked up): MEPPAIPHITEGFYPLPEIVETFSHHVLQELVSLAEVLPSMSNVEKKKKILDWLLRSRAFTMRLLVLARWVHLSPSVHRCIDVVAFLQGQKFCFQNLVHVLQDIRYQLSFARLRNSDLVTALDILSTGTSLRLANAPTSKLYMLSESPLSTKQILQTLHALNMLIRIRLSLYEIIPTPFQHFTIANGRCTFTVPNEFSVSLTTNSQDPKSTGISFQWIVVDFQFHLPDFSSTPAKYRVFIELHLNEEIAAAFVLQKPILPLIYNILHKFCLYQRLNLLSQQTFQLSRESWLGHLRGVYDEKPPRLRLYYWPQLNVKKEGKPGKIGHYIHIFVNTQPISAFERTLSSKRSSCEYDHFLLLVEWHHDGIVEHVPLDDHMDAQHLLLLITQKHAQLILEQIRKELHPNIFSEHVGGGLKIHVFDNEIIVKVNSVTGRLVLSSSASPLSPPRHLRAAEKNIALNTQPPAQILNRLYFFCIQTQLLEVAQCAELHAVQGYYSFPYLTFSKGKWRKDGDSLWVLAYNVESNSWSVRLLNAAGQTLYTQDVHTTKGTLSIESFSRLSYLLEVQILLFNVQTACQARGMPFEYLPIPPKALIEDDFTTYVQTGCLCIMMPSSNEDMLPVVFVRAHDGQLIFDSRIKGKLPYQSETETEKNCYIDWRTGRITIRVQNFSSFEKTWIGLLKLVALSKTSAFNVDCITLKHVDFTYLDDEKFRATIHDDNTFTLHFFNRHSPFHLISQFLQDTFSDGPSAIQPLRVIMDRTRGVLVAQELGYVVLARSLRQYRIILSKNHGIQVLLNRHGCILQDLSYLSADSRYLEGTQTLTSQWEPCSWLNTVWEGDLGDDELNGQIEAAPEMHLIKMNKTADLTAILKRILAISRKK

[3] = target: T3, Med18 (S. pombe Mediator subunit) (S. pombe, UniProt O14198 1-207)
T3 sequence (looked up): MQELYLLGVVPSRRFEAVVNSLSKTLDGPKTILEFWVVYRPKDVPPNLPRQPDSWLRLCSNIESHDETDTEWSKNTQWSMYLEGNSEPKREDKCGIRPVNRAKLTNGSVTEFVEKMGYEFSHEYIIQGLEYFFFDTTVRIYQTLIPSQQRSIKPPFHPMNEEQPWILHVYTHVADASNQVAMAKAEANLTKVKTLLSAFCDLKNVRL

Row | Binder | binding result [1] | binding result [2] | binding result [3]
1 | Med31 (S. pombe Mediator subunit) (natural protein, UniProt Q9USH1 1-139, looked up) METKWLLSKVPDDKSRFEIELEFVQMLSNPWYLNFLAQHKYFEDEAFLQYLEYMEYWREPEYVKFIIYPTCLHMLTLLKNPQFRNDISRADLSKQVNDEIYYEWLGKGLQQYGSADDATLSQPQQEEDEKKVDVKKENE | binds | – | –
2 | Med27 (S. pombe Mediator subunit) (natural protein, UniProt Q10477 1-273, looked up) MSLEEQRTRDELKHKLLDLNQLHEQLAELRTICPSLLKLLHPETGTSRKFEKSAQEAIEKVNSFYTHLKSSQNVFDYAEKSLQADSSNLLPTYLYNSEDLSNDTENNETKSINGKSALDLKEPHHSELHDNDNFQNSDINIESFKGDIEASGSILTTHENKSFTLKLANELEFIFFHDTRGKFSVYCSSSKDDAITFSINRNNNFLGNLWSLMPKILDYQHLYSKPCDFCKSLISPVYLELPSVRRNANSTVKPTSKDILALHAECVPAQSDL | binds | binds | –
3 | Med7-TAP (S. pombe Mediator subunit) (natural protein, UniProt O60104 1-376, looked up) MEPNEGVQLFSAFPPPPPYYKLFTRENIEKVISNMEKEAKHEDDANTLQPKTEEEIESLAKLFKKPSCLTSGTYQMFGDTWRLDEAIPSLKEFGIPELYKDIKDGEDEIEVVEYDPKSNAIVGTSFTRVHDYDKNSPIENEKILEDDQHTAMKEKDNESDKTMKDVEEKTEPSLKKEEEDIQMKEPLDSQDTGAVSASSVNEGFRADQKSKDGETSDLIKIPRRAYELRFLSRSLMLNFLELLGIMAKAPEQFPSKVENIRVLLLNLHHLINDYRPHQSRESLIMLLEKQLKHEESQVELLRTHNRQMTETLEKYKSLDFNMEKEGDVIQQLKSSIKKPLSGAEDEQKSRSMFSKNDEKLKKSLELMEDVIKRDLS | binds | – | –
4 | Med20 (S. pombe Mediator subunit) (natural protein, UniProt Q10317 1-193, looked up) MPVHGVIYYSSPSMATFLSPAQDNLVRTYFAQHLKKWVVQYKLYRNAVTPKTLEFLKQNINPSMLACVDEATMIDAEPELEDIIVRTKLWNFRQSFTIEGSIYEVGSFKVAIANVLQKSVWKGILFHVTYDGTESVDLARPIIQEFFLKCFLQNNKSVTPVYESFFNQPRHSLDSKLLLQLFKQRIDTVSQRT | – | – | binds
